Reference: a protein production outcome set (Wang et al. 2014)

Assay: label from the status in PepcDB records

Row | Sequence | protein production
1 | MPELPWVEKYRPKKLSEIVNQEEAIEKVRAWIESWLHGHPPKKKALLLAGPPGSGKTTTVYALANEYNFEVIELNASDERTYEKISRYVQAAYTMDILGKRRKIIFLDEADNIEPSGAKEIAKLIDKAKNPIIMAANKYWEVPKEIREKAELVEYKRLTQRDVMNALIRILKREGITVPKEILLEIAKRSSGDLRAAINDLQTVVVGGYEDATQVLAYRDVEKTVFQALGLVFGSDNAKRAKMAMWNLDMSPDEFLLWVDENIPHLYLNPEEIAQAYDAISRADIYLGRAARTGNYSLWKYAIDMMTAGVAVAGRKRRGFVKFYPPNTLKILAESKEEREIRESIIKKIIREMHMSRLQAIETMKIIREIFENNLDLAAHFTVFLGLSEKEVEFLAGKEKAGTIWGKALALRRKLKELGIREEEKPKVEIEEEEEEEEKTEEEKEEIEEKPEEEKEEEKKEKEKPKKGKQATLFDFLKK | failed
2 | MERFNMKLTRKKFTGNLLRSLAVLLLFSLVVCTAAGEELYFEPQEAVFSDTGSVASLSLYLDQAPSGLAGYKLNLSISDPSVAQITGVEFPSWSGINNSSSLPADLVQIKAVDLEEKINAGDLDVFLGTVTVESLASGEANLTVSVDRLDDDSENTISVTVREAKLTSGTTSENPVVSILPAESTLSSGASQVFEIRADKFTEGISGYDFNLTLENPAVGKFTNVEYPSWVGLSENSSMPNTSIKVKAVDTNDVVKAGDENVLLANVTFVAETPGESEISLTFNRLDDDSGSNINAVAEASSVKVQGSSTLPVAKFTATPTSGDSPLTVQFTDESTGSPTAWTWDFGDGATATEQSPSHTYTSAGNYTVNLTVTNDGGSDSEVKTDYITVSESSTPTEPEPVAAFTADVTNGTVPLTVNFTDQSTEAPTSWAWDFDNDGTVDSTEQNPSYTYTSAGTYTVNLTVANAEGSDSEVKIDYITVSESSTPTEPEPVAAFIADVTNGTVPLTVNFTDQSTGSPTSWLWDFGDNTSATEQNPSHTYNSAGNYTVNLTVISESGNSSEVKADYITVSESSTPTEPEPVAAFTADVTNGTVPLTVNFTDQSTGMPTSWAWDFDNDGNMDSTEQNPSYTYTAEGNYTVNLTVSSEVGSDSEVKVEYITVTDSSTTPEARPDLIVSSIIPPSSITANTSCNIGATISNTGESDAGTFNATLSVNGAVVDTHAVSGIVSGSSATVNFSWKPVAAGYYSVKVSADAGNVIAESDETNNELADCIKVEEASSGSQSQNGSSSVSLNVTIVPVVCFEVSPSALKFGELSAGQTSEPQLLTLKNCGVSGIKVTAEVSDSSAEDNLFGLGLLLDSQIWSDYCNVIGSNSQENATAALHVPSDYTGTGNKKGTITFWAEVAE | failed
3 | MTSSMLFNITTFTYLVSMLAFFAFLASRNRHLGMAGSLISYFGFFVHTAAILLRWKESYDIGHGHAPLSNLYESVVFFAWTIVLIFGIIDLKYKYRVVGAFVMPFALLGMAWAQLTLNSGIEPLVPALQSNWLLYHVVTCFLGYAAFAVACGISIMYLIKAGKEDSSQSAQAGGIISMFPPTKILDDLNYKAIMIGFPLLTLGIITGAAWANYAWGTYWSWDPKETWSLIVWFVYAAFLHARFTRGWVGKRAAILSIVGFAATIFCYLGVNLLLSGLHSYGGG | failed
4 | SLRPPLPPATPQEVQFVQHMLQHHAQALDLAAPMLERSQQRTVRSLALDIQLSQREQMRQMEAMLGRWGQPPGEPISPEHARMMGMASEAEVAGLSTLPVEQAERQFLRLMIRHHQGAVAMTLPMLDAAARPEVERLARQIVVTQRGEIRTMEGVLGRLDGEVPAAPMRPVEHGHGH | not failed
5 | MEILTCIKQVPGTTSVEVDETTGVLKRDGVDSKMNPYDLYALETALRIKEDKKANLKVLSMGPPQAKKVIEESFMMGADEGALISDRRFGGADVLATSYTISQGIKKMGKVDLIICGKQTTDGDTAQVGPEVAEFLDIPHVTNVTKLIEVKDESIVVEIDMPNDLQVCEIEYPCLITVEKDIFQPRLPSFKLKLNTKDREIPVYSLDDFEDKNENNYGLNGSPTQVVRIFPPKPNTDKNIVRGNADELSFALVNKLEELKLV | not failed
6 | MAEQMRRVARLFGDWPETIIWTCLEGTMGDIYVDDSQSPQSALALYGRQSFFGFLAGQPHRDLLKICEGKNIILVPQNQAWSDLIEEVYGDGVRFFTRYATKKDTEFDLGHLQKLVDDLPESFDMKLIDRNLYETCLVEEWSRDLVGNYIDVEQFLDLGLGCVILHKGQVVSGASSYASYSAGIEIEVDTREDYRGLGLAKACAAQLILACLDRGLYPSWDAHTLTSLKLAEKLGYELDKAYQAYEWR | not failed
